# Measurements reported in publication PMC10636607 (2023).
# Numbering of substitutions follows the chain as printed. Numbers in names are those of the source. Where two headings read alike, the source gives them in different places.
# T1: biotinylated C-terminal αTSR domain of P. falciparum circumsporozoite protein (P. falciparum, UniProt Q7K740 310-375, biotinylated)
# T1 chain: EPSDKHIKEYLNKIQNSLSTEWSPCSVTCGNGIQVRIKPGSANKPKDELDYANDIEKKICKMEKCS
# T2: biotinylated SARS-CoV-2 fusion peptide (SARS-CoV-2, biotin on the N-terminus)
# T2 peptide: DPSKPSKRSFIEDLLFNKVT
# B1: 3E1 Fab (WT) (Fab, V domains shown)
# VH: QVQLQESGPGLVKPSETLSLTCSVSGASISSYYWIWIRQPAGKGLEWIGRFYTSGSPNYNPSLRSRVTMSVDTSKNQFSLKLTSVTAADTAVYYCAREEHITFGGVIVRYWGQGTLVTVSP
# VL: DIQMTQSPATLSASVGDRVSITCRASQSISSWLAWYQQKPGKAPKLLIYKASSLESGVPSRFSGSGSGSEFTLTISSLQPDDFAIYYCQQYNSYPWTFGQGTKVEIK
# B2: HC84.26.5D Fab (WT) (Fab, V domains shown)
# VH: VQPVQSGAEVKKPGSSVKVSCEASGGTHSNYVITWVRQAPGQGLEWMGGFIPDFRTAMYAQGFQGRVTITADESTSLAYMELTNLRSEDTAVYYCARGPLSRGYYDYWGPGTLVTVSS
# VL: YVLTQPPSVSVAPGQTASITCSGDKLGDKYVSWYQQRPGQSPVLVLYQDSKRPSGIPERFSGSNSGNTATLTISGTQAMDEADYYCQAWDSSALVFGGGTKLTVL
# B3: Fab234 (WT) (Fab, V domains shown)
# VH: EVQLVESGGGLVKPGGSLRLSCAASGFNFSTHIMNWVRQAPGKGLEWVSSISSSGTYIYYADSMKGRFTISRDNPKNSLYLQMNSLRAEDTAVYYCARARGFIQFHYYMDVWGKGTTVAVSS
# VL: SYVLTQPPSVSVAPGKTARITCGGNNIGSKSVHWHQQRPGQAPVLVVYDDKIRPSGIPERFSGSNSGNTATLIISRVEAGDEADYYCQVWHSSSDPVVFGGGTKLTVL
# B4: 4E10 Fab (WT) (Fab, V domains shown)
# VH: QVQLVQSGAEVKRPGSSVTVSCKASGGSFSTYALSWVRQAPGRGLEWMGGVIPLLTITNYAPRFQGRITITADRSTSTAYLELNSLRPEDTAVYYCAREGTTGWGWLGKPIGAFAHWGQGTLVTVSS
# VL: EIVLTQSPGTQSLSPGERATLSCRASQSVGNNKLAWYQQRPGQAPRLLIYGASSRPSGVADRFSGSGSGTDFTLTISRLEPEDFAVYYCQQYGQSLSTFGQGTKVEVK
# B5: COV44-62 Fab (WT) (Fab, V domains shown)
# VH: QMQLMQSGAEVKKPGASVTVSCKASGDTFSDYRIHWVRQAPGQGLEWMGRMNPKSGDTNFAQKFQGRVTMTRDMSINTAYMTLSGLTFDDTALYYCASLLIVGGFDPLDDFEVWGQGTMVTISS
# VL: QSALTQPPSASGSPGQSVTISCSGTSSDVGGYNFVSWYQHHPGKAPKILIYEVTKRPSGVPDRFSGSKSGNTASLTVSGLQAEDEADYYCSSYGGTNNLLFGGGTKLTVL
# B6: GAR12 Fab (WT) (Fab, V domains shown)
# VH: EVQLVQSGGGLVQPGGSLRLSCAASGFTFSSYAMSWVRQAPGKGLEWVLSISGSGGSTYYADSVKGRFTISIDNSKKTVYLQMNSLRAEDTAVYYCAKSGEQQLVQAEYFHHWGQGTLVTVSS
# VL: DIQMTQSPSTLSASVGDRVTITCRASQSIGRWLAWYQQKPGKAPKLLIYDASSLESGVPSRFSGSGFGTEFTLTISSLQPDDFATYYCQQCDSLLTFGGGTKLEIK
# B7: GAR12 Fab VL D50K (Fab, V domains shown)
# VH: B6 VH
# VL: B6 VL with D50K
# B8: 5J8 Fab (WT) (Fab, V domains shown)
# VH: EVQLVESGPGLVKPSDILSLTCAVSGYSISSNYYWGWIRQPPGKGLEWIGSIYHSGSTYYKPSLESRLGISVDTSKNQFSLKLSFVSAADTAVYYCARHVRSGYPDTAYYFDKWGQGTLVTVSS
# VL: SYVLTQPPSVSVAPGETARISCGGNNIGTKVLHWYQQTPGQAPVLVVYDDSDRPSGIPERFSGSNSGNTATLTISRVEVGDEADYYCQVWDISTDQAVFGGGTKLTVL
# Columns and labels:
# Test in all cases: BLI
# [1] = molecular target: T3, biotinylated influenza hemagglutinin (HA) from H1N1 A/California/07/2009 (influenza A virus H1N1 …)
# [2] = molecular target: HCV (isolate H77) E2 domain protein (hepatitis C virus (isolate H77))
# [3] = molecular target: T1, biotinylated C-terminal αTSR domain of …
# [4] = molecular target: His-tagged HIV Env MPER peptide (HIV)
# [5] = molecular target: T2, biotinylated SARS-CoV-2 fusion peptide
# [6] = molecular target: His6-tagged SARS-CoV-2 receptor-binding domain (SARS-CoV-2, UniProt P0DTC2 319-541)
# [7] = molecular target: T3, biotinylated influenza hemagglutinin …; remark: listed apart in the source
binder,measurement,setting,value
B1,Kd,[1],6.9 nM
B2,Kd,[2],0.9 nM
B3,Kd,[3],0.2 nM
B4,Kd,[4],9.1 nM
B5,Kd,[5],26 nM
B6,Kd,[6],3.5 nM
B7,Kd,[6],153 nM
B8,Kd,[7],4 nM
